{"source": "paper PMC10359629", "about": "“Thumb-domain dynamics modulate the functional repertoire of DNA-Polymerase IV (DinB)”", "key": {"DinBΔPAD": {"target": "T1, DinBΔPAD (Escherichia coli, UniProt Q47155 1-230)", "T1 sequence": "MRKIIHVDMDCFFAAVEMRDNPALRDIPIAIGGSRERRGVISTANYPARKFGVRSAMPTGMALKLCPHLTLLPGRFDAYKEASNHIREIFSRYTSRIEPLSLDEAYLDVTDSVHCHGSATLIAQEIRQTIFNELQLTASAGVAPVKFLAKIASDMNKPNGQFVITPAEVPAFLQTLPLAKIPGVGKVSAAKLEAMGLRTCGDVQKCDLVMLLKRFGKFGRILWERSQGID", "experiment": "NMR titration; BLI: 50 mM KPi pH 6.5, 50 mM NaCl, 10 mM MgSO4, 1 mM TCEP, 303 K; NMR titrations: NMR buffer (composition in Supplementary Table S2, not fully given), 298 K", "details": "protein: recombinant; tags: N-terminal His6 (stop codon at 231; tag inferred from parent plasmid); blunt; each strand also partly self-complementary (called self-complementary in text)"}, "DinB (DNA polymerase IV)": {"target": "T2, DinB (DNA polymerase IV) (Escherichia coli, UniProt Q47155 1-351)", "T2 sequence": "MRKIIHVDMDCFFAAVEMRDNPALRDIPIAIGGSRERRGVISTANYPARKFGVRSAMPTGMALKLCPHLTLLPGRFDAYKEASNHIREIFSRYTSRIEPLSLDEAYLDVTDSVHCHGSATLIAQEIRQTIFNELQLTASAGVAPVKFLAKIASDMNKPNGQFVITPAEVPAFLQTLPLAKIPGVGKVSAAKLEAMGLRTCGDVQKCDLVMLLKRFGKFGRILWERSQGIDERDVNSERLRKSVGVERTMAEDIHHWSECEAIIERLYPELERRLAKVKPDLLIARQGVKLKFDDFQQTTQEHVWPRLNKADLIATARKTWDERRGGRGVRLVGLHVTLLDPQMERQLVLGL", "experiment": "NMR titration; BLI: 50 mM KPi pH 6.5, 50 mM NaCl, 10 mM MgSO4, 1 mM TCEP, 303 K; NMR titrations: NMR buffer (composition in Supplementary Table S2, not fully given), 298 K", "details": "protein: recombinant; tags: N-terminal His6; blunt; each strand also partly self-complementary (called self-complementary in text)"}}}
{"binder": "18mer dsDNA (dsDNA) DNA 1: TCTAGGGTCCTAGGACCC DNA 2: GGGTCCTAGGACCCTAGA", "values": [{"measurement": "binding result", "setting": "DinBΔPAD", "result": "binds"}, {"measurement": "binding result", "setting": "DinB (DNA polymerase IV)", "result": "binds"}]}
